In patent US20250154281A1 (Amgen, published 2025):
Numbering of substitutions follows the chain as printed. Names may count otherwise. One block for each binder: values may come before it.

Key:
[1] = molecular target: T1, human STEAP1 (Six Trans-membrane Epithelial Antigen of the Prostate 1) (human, UniProt Q9UHE8 1-339); experiment: cell-based or functional assay
[2] = molecular target: T1, human STEAP1 (Six Trans-membrane …); experiment: cell-based or functional assay; remark: listed apart in the source
[3] = molecular target: T1, human STEAP1 (Six Trans-membrane …); experiment: flow cytometry on C4-2B luc cells, MFI (repeat experiment)
Protocol: The experiment was repeated with Ab-A in various formats (Ab-A (traditional, monospecific antibody, not humanized), Ab-A1 XmAb format, Ab-A1 Xmab²⁺¹ format, and Ab-A2(N67Q) Xmab²⁺¹ format (with N67Q modification)) and Ab-B XmAb format. C4-2B-Luc cells were incubated with increasing concentrations of anti-STEAP1 XmAb or XmAb²⁺¹ molecules up to […], for one hour at 4° C. […] Results are shown in FIGS. 12A-12C and FIG. 13 and Table 4 below.

[4] = molecular target: T1, human STEAP1 (Six Trans-membrane …); experiment: flow cytometry on C4-2B-Luc cells
Protocol: (§1) C4-2B-Luc cells were incubated with increasing concentrations of Ab-A1 XmAb²⁺¹, Ab-A1 Xmab, Ab-B1 Xmab, Ab-Mx1, Ab-Mx2 and Ab-Mx3 up to […], for 1 hour at 4° C. Cell-bound antibodies were detected by flow cytometry after incubation with an APC-conjugated anti-human IgG secondary antibody and mean fluorescence intensity (MFI) of the APC channel at increasing concentrations of respective antibodies tested.

[5] = molecular target: T1, human STEAP1 (Six Trans-membrane …); experiment: flow cytometry on C4-2B-Luc cells, APC anti-human IgG, MFI
Protocol: as §1

[6] = molecular target: T1, human STEAP1 (Six Trans-membrane …); experiment: cell-based or functional assay; remark: listed apart in the source
[7] = molecular target: T1, human STEAP1 (Six Trans-membrane …); experiment: cell-based or functional assay; remark: listed apart in the source
[8] = molecular target: T2, recombinant cynomolgus CD3ε-Fc (cynomolgus, UniProt Q95LI5 22-117, limits assumed); experiment: ^b data generated using Octet
T2 construct: not shown: Fc part
T2 sequence (looked up): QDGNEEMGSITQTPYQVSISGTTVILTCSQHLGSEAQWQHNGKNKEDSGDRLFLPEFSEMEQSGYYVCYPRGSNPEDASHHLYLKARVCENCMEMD

[9] = molecular target: T3, recombinant human CD3ε-Fc (human, UniProt P07766 23-126); experiment: ^b data generated using Octet
T3 construct: also called human CD3E-Fc; not shown: Fc part
T3 sequence (P07766 23-126 limits assumed): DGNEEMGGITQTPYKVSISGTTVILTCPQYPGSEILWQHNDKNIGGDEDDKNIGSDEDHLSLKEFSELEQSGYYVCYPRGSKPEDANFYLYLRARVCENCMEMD

[10] = molecular target: T1, human STEAP1 (Six Trans-membrane …); experiment: cell-based or functional assay; remark: listed apart in the source
[11] = molecular target: T2, recombinant cynomolgus CD3ε-Fc; experiment: SPR, CD3ε-Fc immobilized on CM5 chip; ^a data generated using BIAcore
Protocol: (§2) Recombinant human CD3E-Fc and cynomolgus CD3ε-Fc were immobilized on a CM5 chip surface using standard amine coupling procedure at ˜60 RU. Ab-A2(N67Q) XmAb²⁺¹ was injected concentrations of 100, 33.3, 11.1 and 3.7 nM. The association and dissociation rates of Ab-A2(N67Q) XmAb²⁺¹ interaction to the ligands were recorded for 120 sec and 300 sec, respectively, as set forth below in Table 8. The equilibrium dissociation constant (KD) values were derived as a ratio of the dissociation rate constant and the association rate constant (koff/kₒₙ).

[12] = molecular target: T3, recombinant human CD3ε-Fc; experiment: as above
Protocol: as §2

T1 sequence (Q9UHE8 whole entry): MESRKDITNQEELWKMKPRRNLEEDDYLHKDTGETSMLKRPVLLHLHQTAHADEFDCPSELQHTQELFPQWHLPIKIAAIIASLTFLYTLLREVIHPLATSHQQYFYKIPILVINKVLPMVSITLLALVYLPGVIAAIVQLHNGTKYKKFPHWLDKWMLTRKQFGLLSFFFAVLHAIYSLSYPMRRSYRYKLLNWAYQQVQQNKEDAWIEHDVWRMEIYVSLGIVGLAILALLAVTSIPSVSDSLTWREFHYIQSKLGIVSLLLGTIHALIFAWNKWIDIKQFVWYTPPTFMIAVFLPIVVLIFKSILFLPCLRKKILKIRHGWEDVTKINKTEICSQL

TDCC EC50 [1]: 6 pM
TDCC EC50, C4-2B luc cells [2]: 6.3 pM
EC50 [3]: 2200 pM
fold lower binding EC50 than Ab-A1 Xmab [4]: 65 fold
EC50 [5]: 2200 pM
B1: Ab-A1 XmAb^2+1 (humanized anti-STEAP1/anti-CD3 heterodimeric antibody) (bispecific antibody)
heavy 1: QVQLVQSGAEVKKPGASVKVSCKASGYTFSTYWIEWVRQAPGQRLEWMGEILPGSGNTDFNEKFQGRVTFTADTSSDTAYMELSSLRSEDTAVYYCTRWGYYGTRGYFNVWGQGTLVTVSSASTKGPSVFPLAPSSKSTSGGTAALGCLVKDYFPEPVTVSWNSGALTSGVHTFPAVLQSSGLYSLSSVVTVPSSSLGTQTYICNVNHKPSNTKVDKKVEPKSCGGGGSGGGGSEVQLVESGGGLVQPGGSLRLSCAASGFTFSTYAMNWVRQAPGKGLEWVGRIRSKYNNYATYYADSVKGRFTISRDDSKNTLYLQMNSLRAEDTAVYYCVRHGNFGDSYVSWFAYWGQGTLVTVSSGKPGSGKPGSGKPGSGKPGSQAVVTQEPSLTVSPGGTVTLTCGSSTGAVTTSNYANWVQQKPGKSPRGLIGGTNKRAPGVPARFSGSLLGGKAALTISGAQPEDEADYYCALWYSNHWVFGGGTKLTVLGGGGSGGGGSKTHTCPPCPAPPVAGPSVFLFPPKPKDTLMISRTPEVTCVVVDVKHEDPEVKFNWYVDGVEVHNAKTKPREEQYNSTYRVVSVLTVLHQDWLNGKEYKCKVSNKALPAPIEKTISKAKGQPREPQVYTLPPSREQMTKNQVKLTCLVKGFYPSDIAVEWESNGQPENNYKTTPPVLDSDGSFFLYSKLTVDKSRWQQGNVFSCSVMHEALHNHYTQKSLSLSPGK
heavy 2: QVQLVQSGAEVKKPGASVKVSCKASGYTFSTYWIEWVRQAPGQRLEWMGEILPGSGNTDFNEKFQGRVTFTADTSSDTAYMELSSLRSEDTAVYYCTRWGYYGTRGYFNVWGQGTLVTVSSASTKGPSVFPLAPSSKSTSGGTAALGCLVKDYFPEPVTVSWNSGALTSGVHTFPAVLQSSGLYSLSSVVTVPSSSLGTQTYICNVNHKPSDTKVDKKVEPKSCDKTHTCPPCPAPPVAGPSVFLFPPKPKDTLMISRTPEVTCVVVDVKHEDPEVKFNWYVDGVEVHNAKTKPREEEYNSTYRVVSVLTVLHQDWLNGKEYKCKVSNKALPAPIEKTISKAKGQPREPQVYTLPPSREEMTKNQVSLTCDVSGFYPSDIAVEWESDGQPENNYKTTPPVLDSDGSFFLYSKLTVDKSRWEQGDVFSCSVMHEALHNHYTQKSLSLSPGK
light: EIVLTQSPATLSLSPGERATLSCRASSSVSYMHWFQQKPGQAPRLLIYSTSNLASGIPARFSGSGSGTDYTLTISSLEPEDFAVYYCQQRRSFPYTFGQGTKLEIKRTVAAPSVFIFPPSDEQLKSGTASVVCLLNNFYPREAKVQWKVDNALQSGNSQESVTEQDSKDSTYSLSSTLTLSKADYEKHKVYACEVTHQGLSSPVTKSFNRGEC
notes: XmAb^2+1 format: first monomer VH-CH1-(anti-CD3 scFv)-Fc, second monomer VH-CH1-Fc, common light chain; two STEAP1 Fabs and one CD3 scFv; monomers 19 or 20 / 18 or 199 / light 17; scFv 44; also called XmAb^2+1 Ab-A1; copies: 1 + 1 + 2

TDCC EC50, 22RV-1 cells [6]: 257 pM
TDCC EC50, C4-2B cells [6]: 6.8 pM
TDCC EC50, HBSMC cells [6]: 1520 pM
TDCC EC50, HCT116 cells [6]: 336 pM
TDCC EC50, HUCCT1 cells [6]: > 10000 pM
TDCC EC50, IM-95 cells [6]: 345 pM
TDCC EC50, LOX-IMVI cells [6]: 36.6 pM
TDCC EC50, NCIH1869 cells [6]: > 10000 pM
TDCC EC50, PC3 cells [6]: > 10000 pM
TDCC EC50, SK-N-MC cells [6]: 10.4 pM
TDCC EC50, SNU5 cells [6]: 6.2 pM
TDCC EC50, TYKNU cells [6]: 1720 pM
TDCC EC50, VCaP cells [6]: 722 pM
TDCC EC50, A673 cells [7]: 122 pM
TDCC EC50, EBC1 cells [7]: 162 pM
TDCC EC50, OE33 cells [7]: 145 pM
TDCC EC50, C4-2B luc cells [2]: 5.4 pM
EC50 [3]: 1200 pM
Kd [8]: 25800 pM
Kd [9]: 27600 pM
TDCC EC50, 293T cells stably transfected with human STEAP1 [10]: 0.1 pM
Kd [11]: 15100 pM
Kd [12]: 16300 pM
B2: Ab-A2(N67Q) XmAb^2+1 (variant of Ab-A1 XmAb^2+1 having a N67Q modification) (bispecific antibody)
heavy 1: B1 heavy 1 with N57Q, R568C, N573G, V578C
heavy 2: B1 heavy 2 with N57Q, R295C, N300G, V305C
light: B1 light
notes: XmAb^2+1 format (two STEAP1 Fabs, one anti-CD3 scFv); monomers 19 or 20 / 18 or 199 / light 17; scFv 44; also called Ab-A2 XmAb^2+1; copies: 1 + 1 + 2
